In patent US20040058394A1 (Biogen, published 2004):
Positions count from the first letter of the chain named. Names may count otherwise.

B1: L2/V93A H2 (VL#2 with the V93A variant of VH#2) (antibody, V domains shown)
VH: EVQLVESGGGLVKPGGSLRLSCAASGFTFSDYYMYWFRQAPGKGLEWVATISDGGSYTYYPDSVKGRFTISRDNAKNSLYLQMSSLRAEDTAVYYCAREENGNFYYFDYWGQGTTVTVSS
VL: DIQMTQSPSSLSASVGDRVTITCKAGQDIKSYLSWYQQKPWKAPKILIYYATRLADGVPSRFSGSGSGTDYTLTISSLQPEDFATYYCLQHGESPWTFGGGTKLEIK
notes: Human IgG1 / kappa constant regions; also called pAND072/pAND090
B2: chimeric CBE11 (chCBE11) (antibody, V domains shown)
VH: B1 VH with R19K, A40T, G42E, G44R, S78N, R87K, A88S, V93M, A97V
VL: DIKMTQSPSSMYASLGERVTITCKAGQDIKSYLSWYQQKPWKSPKILIYYATRLADGVPSRFSGSGSGQDYSLTISSLESDDTATYYCLQHGESPWTFGGGTKLEIK
notes: the latter is followed; also called pEAG982/pEAG983
B3: huCBE11 #4 (VL#3 with VH#4) (antibody, human IgG1, V domains shown)
VH: B1 VH
VL: DIQMTQSPSSLSASVGDRVTITCKAGQDIKSYLSWYQQKPGKAPKLLIYYATRLADGVPSRFSGSGSGTDYTLTISSLQPEDFATYYCLQHGESPWTFGGGTKLEIKR
notes: Full mature chains with human IgG1 and kappa constant domains; also called hCBE11; pAND076/pAND090
B4: L2/H3 (VL#2 with VH#3) (antibody, human IgG1, V domains shown)
VH: B1 VH with F37V
VL: B1 VL
notes: Mix and match co-transfection; Human IgG1 / kappa constant regions; also called pAND072/pAND077
B5: L3/H2 (VL#3 with VH#2) (antibody, human IgG1, V domains shown)
VH: B1 VH with A97V
VL: B1 VL with W41G, I46L
notes: Mix and match co-transfection; Human IgG1 / kappa constant regions; also called pAND076/pAND073
B6: huCBE11 #1 (VL#1 with VH#1) (antibody, human IgG1, V domains shown)
VH: B1 VH with A40T, V93M, A97V
VL: B1 VL with Q3K, T69Q
notes: also called pAND068/pAND069
B7: huCBE11 #3 (VL#3 with VH#3) (antibody, human IgG1, V domains shown)
VH: B1 VH with F37V
VL: B1 VL with W41G, I46L
notes: also called pAND076/pAND077
B8: huCBE11 #2 (VL#2 with VH#2) (antibody, human IgG1, V domains shown)
VH: B1 VH with A97V
VL: B1 VL
notes: also called huCBE#2; pAND072/pAND073

What was measured:
[1] = molecular target: T1, lymphotoxin beta receptor (LT-β-R) (human, UniProt P36941 31-435); assay: FACS staining of HT-29 cells with conditioned medium, PE anti-human IgG
T1 construct: whole, on cells; also called LT-β receptor
T1 sequence (P36941 31-435): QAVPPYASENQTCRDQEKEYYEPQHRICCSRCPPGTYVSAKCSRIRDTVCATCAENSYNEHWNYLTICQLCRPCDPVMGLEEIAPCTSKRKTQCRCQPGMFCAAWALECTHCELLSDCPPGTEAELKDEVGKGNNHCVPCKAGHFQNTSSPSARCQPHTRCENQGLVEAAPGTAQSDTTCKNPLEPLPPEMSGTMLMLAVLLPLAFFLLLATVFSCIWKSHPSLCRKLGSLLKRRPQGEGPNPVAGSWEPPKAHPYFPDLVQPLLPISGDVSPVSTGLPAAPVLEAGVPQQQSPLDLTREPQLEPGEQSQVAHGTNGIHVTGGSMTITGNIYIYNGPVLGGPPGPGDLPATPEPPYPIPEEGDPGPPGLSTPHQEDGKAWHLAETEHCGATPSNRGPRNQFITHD
Procedure: Expression vectors were co-transfected into 293-EBNA cells and transfected cells were tested for antibody secretion and specificity (empty vector-transfected cells served as negative control). […] To examine the individual contributions of each of these changes, new heavy chain expression vectors were constructed. Plasmid pAND089, the F37V variant of VH#2, was made by subcloning the 311 bp NotI-PstI fragment from pAND075, the 126 bp PstI-HindIII fragment from pAND071, and the 1.21 kb HindIII-NotI fragment from the plasmid pEAG964 into the NotI site of the pCEP4 EBV expression vector-derived plasmid pCH269. Plasmid pAND090, the V93A variant of VH#2, was made by subcloning the 311 bp NotI-PstI fragment from pAND071, the 126 bp PstI-HindIII fragment from pAND075, and the 1.21 kb HindIII-NotI fragment from the plasmid pEAG964 into the NotI site of the pCEP4 EBV expression vector-derived plasmid pCH269. These H2/H3 chimeric heavy chains were co-transfected into 293-EBNA cells with VL#2 or VL#3. […] The pAND076 and pAND090 pairing was designated huCBE11 #4 (Table 1 supra).
Conditioned medium from transiently transfected cells was used to stain HT-29 cells by incubating for 30 min on ice, washing cells twice with FACS buffer (PBS with 5% FBS and 0.05% sodium azide), staining with PE-conjugated anti-human IgG (H+L), Jackson ImmunoResearch Laboratories, Inc., for 30 min on ice in FACS buffer, washing cells twice with FACS buffer, and resuspending in FACS buffer for analysis.

[2] = molecular target: T1, lymphotoxin beta receptor (LT-β-R); assay: FACS titration on HT-29 cells, 4°C, non-specific binding subtracted, four parameter fit (functional affinity)
Procedure: HuCBE11 #4 anti-LTβR antibody and humanized anti-CD40L as a negative control were diluted in PBS and a 12 point serial 1:4 dilution was made to a final concentration range of 2.37 pM-10 μM. 100 μL cell suspension and 100 μL antibody dilution were added together to each well of a 96 well V-bottom microtiter plate. The antibody and the cells were incubated at 4° C. for 2 hours. The plate was centrifuiged at 1000 rpm (110×g) for 10 minutes at 4° C. The supernatant was discarded and the cell pellet was washed with cold PBS six times.
Goat-anti human IgG-phycoerythrin conjugate (Jackson Immunoresearch) was diluted 1:100 in PBS and 200 μL was added to each well. The cells were incubated with this secondary antibody for one hour at 4° C., centrifuged as described above, and washed once in cold PBS. The cells were then transferred to polystyrene test tubes. Fluorescence intensity was measured on a FACS Calibur instrument (Beckton Dickinson).
These specific fluorescence intensity values were then plotted against huCBE11 #4 concentrations on a log scale. The resulting curve is bell shaped and symmetrical, and reflects self-inhibition of the antibody binding at high concentrations. The left half of this curve was fit to a four parameter equation to find the functional affinity of the antibody. The resulting curve fit gives an EC₅₀ value of 60 pM for the huCBE11 #4 binding to HT-29 cells.

Row | Binder | Relative MFI [1] | EC50 [2] [pM]
1 | B1 | 0.75 MFI normalized to chCBE11 | –
2 | B2 | 1 MFI normalized to chCBE11 | –
3 | B3 | 1 MFI normalized to chCBE11 | 60
4 | B4 | 0.42 MFI normalized to chCBE11 | –
5 | B5 | 1 MFI normalized to chCBE11 | –
6 | B6 | 1 MFI normalized to chCBE11 | –
7 | B7 | 0.62 MFI normalized to chCBE11 | –
8 | B8 | 1 MFI normalized to chCBE11 | –
